According to US12441803B2, “Engineered CD25 polypeptides and uses thereof” (iBio, Inc., priority 2018, dated 2025):

T1: CD25 (Homo sapiens, UniProt P01589)
T1 sequence (P01589 22-272): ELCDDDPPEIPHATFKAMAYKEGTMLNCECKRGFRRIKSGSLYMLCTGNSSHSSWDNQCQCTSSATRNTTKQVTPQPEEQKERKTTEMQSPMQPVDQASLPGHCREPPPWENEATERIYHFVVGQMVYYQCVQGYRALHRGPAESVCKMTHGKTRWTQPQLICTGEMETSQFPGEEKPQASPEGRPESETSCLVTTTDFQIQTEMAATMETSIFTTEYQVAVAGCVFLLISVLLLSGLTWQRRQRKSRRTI


The molecules below were run against T1, CD25 (assay: Binding of human IgG1 format antibodies to CD25 by Octet). Conditions: read-out: Biosensor Measured CD25 Affinity.
Excerpt: Thirty antibodies were selected for additional testing as full-length immunoglobulins. The heavy and light chain sequences were cloned into human immunoglobulin G (IgG1) format and expressed and purified.

Row | Molecule | Kd [nM]
1 | YU397-D01: anti-CD25 scFv clone, SEQ ID NO: 817 (protein, listed as Mus musculus) scFv: PSGTLSLTCAVSGGSISSSNWWSWVRQPPGKGLEWIGEIYHSGSTNYNPSLKSRVTISVDKSKNQFSLKLSSVTAADTAVYYCARARGGRYFDYWGQGTLVTVSSCARARGGRYFDYWDIVLTQSPSFLSASVGDRVTITCRASQGISTYLAWYQQKPGTAPKVLMYAASTLHSGVPSRFSGSGSGTEFTLTISSLQPEDFAIYYCQQLNGYPTTFGGGTRVEIKCQQLNGYPTTF | 3.86
2 | YU400-B07: anti-CD25 scFv clone, SEQ ID NO: 822 (protein, listed as Mus musculus) scFv: PGRSLRLSCAASGFTFSSYGMHWVRQAPGKGLEWVAVISYDGSNKYYADSVKGRFTISRDNSKNTLYLQMNSLRAEDTAVYYCAKGDVNYGMDVWGQGTTVTVSSCAKGDVNYGMDVWSYVLTQPPSVSVAPGKTARITCGGNNIGSKSVHWYQQKPGQAPVLVVYDDTDRPSGIPERFSGSNSGNTATLTISRVEAGDEADYYCQVWDSSSDLLWVFGGGTKLAVLCQVWDSSSDLLWVF | 57.8
3 | YU392-B11: anti-CD25 scFv clone, SEQ ID NO: 750 (protein, listed as Mus musculus) scFv: PGATVKISCKVSGYTFTDYYMHWVQQAPGKGLEWMGLVDPEDGETIYAEKFQGRVTITADTSTDTAYMELSSLRSEDTAVYYCAVEGGRAPGTYYYDSSGLAYWGQGTLVTVSSCAVEGGRAPGTYYYDSSGLAYWQAGLTQPPSASGTPGQRVTISCSGSSSNIGSNYVYWYQQLPGTAPKLLIYSNNQRPSGVPDRFSGSKSGTSASLAISGLRSEDEADYYCATWDDSLSGVVFGGGTKLTVLCATWDDSLSGVVF | 65.6
4 | YU389-A03: anti-CD25 scFv clone, SEQ ID NO: 730 (protein, listed as Mus musculus) scFv: PSQTLSLTCTVSGGSISSGGYYWSWIRQHPGKGLEWIGYIYYSGSTYYNPSLKSRVTISVDTSKNQFSLKLSSVTAADTAVYYCARGNLWSGYYFWGQGTLVTVSSCARGNLWSGYYFWQSVLTQPPSVSAAPGQKVTISCSGSSSNIGNNFVSWYQQVPGTAPKLLTYDSTKRPAGIPDRFSGSKSGTSATLEIAGLQTGDEADYYCGSWDTNLSGYVFGTGTKVTVLCGSWDTNLSGYVF | 9.55
5 | YU401-B01: anti-CD25 scFv clone, SEQ ID NO: 827 (protein, listed as Mus musculus) scFv: PGSSVKVSCKASGGTFSSYAISWVRQAPGQGLEWMGGIIPIFGTANYAQKFQGRVTITADESTSTAYMELSSLRSEDTAVYYCAREMYYYYGMDVWGQGTTVTVSSCAREMYYYYGMDVWDIVMTQSPSSLSASVGDRVTITCRASQSIITYLNWYQQKPGKVPKLLIYAASSLQSGVPSRFSGSGSGTDFTLTISSLQPEDFATYYCQQSYSTPPTFGQGTKLEIKCQQSYSTPPTF | 70.4
6 | YU390-A11: anti-CD25 scFv clone, SEQ ID NO: 736 (protein, listed as Mus musculus) scFv: PGRSLRLSCAASGFTFSSYGMHWVRQAPGKGLEWVAVISYDGSNKYYADSVKGRFTISRDNSKNTLYLQMNSLRAEDTAVYYCAKELLEGAFDIWGQGTMVTVSSCAKELLEGAFDIWSYVLTQPPSLSVAPGQTARITCGGDNIETKSVHWYQQRPGQAPVLVVYDDDDRPSGIPERFSGSNSGNTATLTISRVEAGDEADYYCQVWDSSSGHREVFGGRTKPALLCQVWDSSSGHREVF | 13.3
7 | YU390-B12: anti-CD25 scFv clone, SEQ ID NO: 738 (protein, listed as Mus musculus) scFv: PGRSLRLSCAASGFTFSSYGMHWVRQAPGKGLEWVAVISYDGSNKYYADSVKGRFTISRDNSKNTLYLQMNSLRAEDTAVYYCAKELLEGAFDIWGQGTMVTVSSCAKELLEGAFDIWSYVLTQPPSLSVAPGQTARITCGGDNIETKSVHWYQQRPGQAPVLVVYDDDDRPSGIPERFSGSNSGNTATLTISRVEAGDEADYYCQVWDSSSGHREVFGGGTKLTVLCQVWDSSSGHREVF | 13.7
8 | YU401-G07: anti-CD25 scFv clone, SEQ ID NO: 831 (protein, listed as Mus musculus) scFv: LGRSLRLSCAASGFTFSSYGMHWVRQAPGKGLEWVAVISYDGSNKYYADSVKGRFTISRDNSKNTLYLQMNSLRAEDTAVYYCAKGDVNYGMDVWGQGTTVTVSSCAKGDVNYGMDVWSYVLTQPPSVSVAPGQTARISCGGSNIGSKTVNWYRKKAGQAPVLVVYDGRDRPSGIPERFSGSNSGNAATLIISRVEVGDEADYYCQVWDTSGDLHWAFGGGTKLTVLCQVWDTSGDLHWAF | 15.3
9 | YU392-A09: anti-CD25 scFv clone, SEQ ID NO: 749 (protein, listed as Mus musculus) scFv: PGATVKISCKVSGYTFTDYYMHWVQQAPGKGLEWMGLVDPEDGETIYAEKFQGRVTITADTSTDTAYMELSSLRSEDTAVYYCATEGRYGMDVWGQGTTVTVSSCATEGRYGMDVWQAVLTQPPSVSGTPGQRVTISCSGNNFNIGNNLVYWYQQLPGTAPKLLIYANDERPSGVPDRFSGSKSGTSASLAISGLRSEDDADYYCATWDDSLSGVVFGGGTKLTALCATWDDSLSGVVF | 12.4
10 | YU400-D09: anti-CD25 scFv clone, SEQ ID NO: 823 (protein, listed as Mus musculus) scFv: PGSSVKVSCKASGGTFSSYAISWVRQAPGQGLEWMGGIIPIFGTANYAQKFQGRVTITADESTSTAYMELSSLRSEDTAVYYCARDFNPFSITIFEMDVWGQGTTVTVSSCARDFNPFSITIFEMDVWQSVLTQPPSVSAAPGQKVTISCSGSSSNIGNNYVSWYQQLPGTAPKLLIYDNNKRPSGIPDRFSGSKSGTSATLGITGLQTGDEADYYCGTWDSSLSALVFGGGTKLTVLCGTWDSSLSALVF | 54.6
11 | YU403-G05: anti-CD25 scFv clone, SEQ ID NO: 835 (protein, listed as Mus musculus) scFv: PSGDLSLTCDVSGGSISRSNWWIWVRQPPGKGLEWIGEIYHTGSTNYNPSLKRRVTISVDKSKNQFSLNLSSVTAADTAVYYCARGKGSYAFDIWGLGTMVTVSSCARGKGSYAFDIWVLTQPHSVSESPGKTVTISCTGSGGNIARNYVQWYQHRPGRAPSTVIYEDDRRPSGVPDRFSGSTDISSNSASLTISGLKTEDEADYYCQSYDGNNHMVFGGGTRVTVLCQSYDGNNHMVF | 31.9
12 | YU398-A11: anti-CD25 scFv clone, SEQ ID NO: 818 (protein, listed as Mus musculus) scFv: PGRSLRLSCAASGFTFSSYGMHWVRQAPGKGLEWVAVISYDGSNKYYADSVKGRFTISRDNSKNTLYLQMNSLRAEDTAVYYCAKGQGDGMDVWGQGTTVTVSSCAKGQGDGMDVWYELTQPPSASGTPGQRVTISCSGSSSNVGSRTVSWFQQLPGTAPKLLIYSNNLRPSGVPDRFSGSKSGTSASLAISGLQSEDEADYYCAAWDDSLIGHVFGTGTKVTVVCAAWDDSLIGHVF | 12.1
